Legend:
[1] = target: the molecule itself; experiment: cross-linking
[2] = target: the molecule itself; experiment: EPR
[3] = target: LexA G54R1 (LexA54) (Escherichia coli K-12 RW118, UniProt P0A7C2 1-202, G54C); experiment: EPR
[4] = target: LexA A29R1 (LexA29) (Escherichia coli K-12 RW118, UniProt P0A7C2 1-202, A29C); experiment: EPR
[5] = target: T1, LexA repressor (wild type) (E. coli K-12 strain RW118, UniProt P0A7C2 1-202); experiment: cross-linking
T1 sequence (looked up): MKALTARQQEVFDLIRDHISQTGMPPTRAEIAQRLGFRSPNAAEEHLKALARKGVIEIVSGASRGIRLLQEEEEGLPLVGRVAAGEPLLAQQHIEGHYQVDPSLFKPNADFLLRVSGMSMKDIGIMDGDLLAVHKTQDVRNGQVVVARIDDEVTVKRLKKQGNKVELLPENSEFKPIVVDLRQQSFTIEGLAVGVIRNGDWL

[6] = target: the molecule itself; experiment: cross-linking; remark: listed apart in the source

B1: LexA54 (Gly54 replaced by Cys), oxidized (natural protein, E. coli K-12 strain RW118, UniProt P0A7C2 1-202, looked up)
chain: MKALTARQQEVFDLIRDHISQTGMPPTRAEIAQRLGFRSPNAAEEHLKALARKCVIEIVSGASRGIRLLQEEEEGLPLVGRVAAGEPLLAQQHIEGHYQVDPSLFKPNADFLLRVSGMSMKDIGIMDGDLLAVHKTQDVRNGQVVVARIDDEVTVKRLKKQGNKVELLPENSEFKPIVVDLRQQSFTIEGLAVGVIRNGDWL
modifications: covalently bound at residue 54 after oxidation with 0.1 mM CuSO4 and 0.5 mM 1,10-phenantroline
[1]
  binding result: binds

B2: LexA54 spin labeled (G54R1) (natural protein, E. coli K-12 strain RW118, UniProt P0A7C2 1-202, looked up)
chain: MKALTARQQEVFDLIRDHISQTGMPPTRAEIAQRLGFRSPNAAEEHLKALARKCVIEIVSGASRGIRLLQEEEEGLPLVGRVAAGEPLLAQQHIEGHYQVDPSLFKPNADFLLRVSGMSMKDIGIMDGDLLAVHKTQDVRNGQVVVARIDDEVTVKRLKKQGNKVELLPENSEFKPIVVDLRQQSFTIEGLAVGVIRNGDWL
modifications: MTSSL nitroxide spin label (R1) on the cysteine at position 54
[2]
  binding result: binds

B3: LexA29 spin labeled (A29R1) (natural protein, E. coli K-12 strain RW118, UniProt P0A7C2 1-202, looked up)
chain: MKALTARQQEVFDLIRDHISQTGMPPTRCEIAQRLGFRSPNAAEEHLKALARKGVIEIVSGASRGIRLLQEEEEGLPLVGRVAAGEPLLAQQHIEGHYQVDPSLFKPNADFLLRVSGMSMKDIGIMDGDLLAVHKTQDVRNGQVVVARIDDEVTVKRLKKQGNKVELLPENSEFKPIVVDLRQQSFTIEGLAVGVIRNGDWL
modifications: MTSSL nitroxide spin label (R1) on the cysteine at position 29
[2]
  binding result: binds

B4: tisB operator 24 bp (Tis_1b/Tis_2b) (dsDNA)
DNA 1: TTTACTGTATAAATAAACAGTAAT
DNA 2: ATTACTGTTTATTTATACAGTAAA
[3]
  binding result: binds
[4]
  binding result: binds

B5: LexA C-terminal fragment (CTD), product of self-cleavage (domain or fragment, E. coli K-12 strain RW118, UniProt P0A7C2 85-202, looked up)
chain: GEPLLAQQHIEGHYQVDPSLFKPNADFLLRVSGMSMKDIGIMDGDLLAVHKTQDVRNGQVVVARIDDEVTVKRLKKQGNKVELLPENSEFKPIVVDLRQQSFTIEGLAVGVIRNGDWL
[5]
  binding result: binds
[6]
  binding result: binds

— publication PMC3159453 (Nucleic Acids Research, 2011)
